[ ]: non-standard residue; d: D form. Arg(Me) = CNC(=N)NCCC[C@H](N)C(=O)O; Dap(CONH2) = NC(=O)NC[C@H](N)C(=O)O; Ala(cPr) = N[C@@H](CC1CC1)C(=O)O; Hyp = O=C(O)[C@@H]1C[C@@H](O)CN1; Cha = N[C@@H](CC1CCCCC1)C(=O)O; Dap = NC[C@H](N)C(=O)O
B1: des(1)-Ac-[D-Tyr2,Hyp3,Thr5,Cha6,Gly7Ψ(CH2CH2)Leu8,Trp10]MS10 (peptide)
peptide: Ac-[dY][Hyp]NT[Cha]GLRW-NH2
modifications: also: Gly7Ψ(CH2CH2)Leu8: amide between Gly and Leu replaced by -CH2CH2-
B2: des(1)-Ac-[D-Tyr2,Hyp3,Alb4,Thr5,Cha6,Gly7Ψ(CH2CH2)Leu8,Trp10]MS10 (peptide)
peptide: Ac-[dY][Hyp][Dap(CONH2)]T[Cha]GLRW-NH2
modifications: also: Gly7-Leu8 amide bond replaced by -CH2CH2-
B3: des(1)-Ac-[D-Tyr2,Hyp3,Alb4,Thr5,Cha6,Ala(cPr)8,Arg(Me)9,Trp10]MS10 (peptide)
peptide: Ac-[dY][Hyp][Dap(CONH2)]T[Cha]G[Ala(cPr)][Arg(Me)]W-NH2
SMILES: CNC(=N)NCCC[C@H](NC(=O)[C@H](CC1CC1)NC(=O)CNC(=O)[C@H](CC1CCCCC1)NC(=O)[C@@H](NC(=O)[C@H](CNC(N)=O)NC(=O)[C@@H]1C[C@@H](O)CN1C(=O)[C@@H](Cc1ccc(O)cc1)NC(C)=O)[C@@H](C)O)C(=O)N[C@@H](Cc1c[nH]c2ccccc12)C(N)=O
B4: des(1)-Ac-[D-Tyr2,Hyp3,Alb4,Thr5,Cha6,Gly7Ψ(CH2CH2)Leu8,Arg(Me)9,Trp10]MS10 (peptide)
peptide: Ac-[dY][Hyp][Dap(CONH2)]T[Cha]GL[Arg(Me)]W-NH2
modifications: also: Gly7-Leu8 amide bond replaced by -CH2CH2-
B5: des(1)-Ac-[D-Tyr2,Hyp3,Thr5,Dap7,Arg(Me)9,Trp10]MS10 (peptide)
peptide: Ac-[dY][Hyp]NTF[Dap]L[Arg(Me)]W-NH2

Target: human OT7T175 (metastin receptor) (human) (UniProt Q969F8)
Sequence of UniProt Q969F8 (Q969F8 whole entry L364H): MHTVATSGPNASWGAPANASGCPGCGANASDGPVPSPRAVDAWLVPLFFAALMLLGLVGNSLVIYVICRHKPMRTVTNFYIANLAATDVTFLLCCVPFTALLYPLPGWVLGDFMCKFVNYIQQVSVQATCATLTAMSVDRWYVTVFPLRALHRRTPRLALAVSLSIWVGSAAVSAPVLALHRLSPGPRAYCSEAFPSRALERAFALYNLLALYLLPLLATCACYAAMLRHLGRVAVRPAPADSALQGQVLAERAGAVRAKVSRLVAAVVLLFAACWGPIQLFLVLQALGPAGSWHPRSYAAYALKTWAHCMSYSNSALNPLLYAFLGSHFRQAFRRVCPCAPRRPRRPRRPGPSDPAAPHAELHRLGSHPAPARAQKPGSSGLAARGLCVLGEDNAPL
Test: cell-based or functional assay

Binder	Specific Activity (EC50 of test compound based on EC50 of Metastin (45-54); intracellular calcium, FLIPR) (ratio to EC50 of Metastin (45-54))
B1	1.1
B2	1.3
B3	0.5
B4	1.1
B5	1.3

Reference: patent publication US20110059888A1
